B8: CyanoP (natural protein, Thermosynechococcus elongatus, UniProt Q8DH84 20-183, looked up)
chain: CSATSGLQAYVDSYDGYEFLYPRGWVQVQVEDPVDVVFHDIIETTENVSVVVNTVASTKSLEELGSPEEVGDRLLRNIIAPSESGRSSALIAATSQKADDKTYYILEYAVTLPGDGNTAQQRHNLSSIAVSRGKVYTLSVSAPEERWPKVEDQFKTIVSSFTVY
notes: CyanoP of Thermosynechococcus elongatus, without signal peptide; Expression vector derived from pIVEX2.4d; tags and purification are told only in the supplementary material; also called recombinant CyanoP; cyanobacterial homolog of higher plant PsbP; source: E. coli Overexpress C43, purified

Conditions in all cases: both partners purified
The test “CyanoP” concerns the target B8. Nature of the test: SPR; Biacore3000, CM5 chip with covalently bound DNase E7; Im7-tagged luminal PSII domain captured from the cell-free reaction mixture (on-chip purification); reference surface with Im7, both surfaces saturated with purified Im7; soluble protein injected as analyte in triplicate; steady state responses fitted to a one site binding isotherm. Background: SPR reads the build-up and loss of mass on a sensor chip optically.

Test [1] concerns the target T1, PsbV (Thermosynechococcus elongatus, UniProt P0A386 27-163).
T1 construct: PsbV of Thermosynechococcus elongatus, without signal peptide; details of expression and purification are in the supplementary material; also called extrinsic PSII subunit PsbV; source: expressed after a published protocol (Andrews et al., 2005), purified as strep-tagged protein
T1 sequence (looked up): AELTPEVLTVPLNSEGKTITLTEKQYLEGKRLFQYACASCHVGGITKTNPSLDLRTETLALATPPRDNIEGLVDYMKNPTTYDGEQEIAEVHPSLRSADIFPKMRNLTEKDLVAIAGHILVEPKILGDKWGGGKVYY
Kind of test: SPR; Biacore3000, CM5 chip coated with DNase E7; extrinsic proteins as Im7 fusion proteins overexpressed in E. coli; who was immobilised is not told in the main text; details in the supplementary material.

The target of a further test is T2, PsbO (Thermosynechococcus elongatus, UniProt P0A431 27-272).
T2 construct: PsbO of Thermosynechococcus elongatus, without signal peptide; Expression vector derived from pIVEX2.4d; tags and purification are told only in the supplementary material; also called extrinsic PSII subunit PsbO; source: E. coli Overexpress C43, purified
T2 sequence (looked up): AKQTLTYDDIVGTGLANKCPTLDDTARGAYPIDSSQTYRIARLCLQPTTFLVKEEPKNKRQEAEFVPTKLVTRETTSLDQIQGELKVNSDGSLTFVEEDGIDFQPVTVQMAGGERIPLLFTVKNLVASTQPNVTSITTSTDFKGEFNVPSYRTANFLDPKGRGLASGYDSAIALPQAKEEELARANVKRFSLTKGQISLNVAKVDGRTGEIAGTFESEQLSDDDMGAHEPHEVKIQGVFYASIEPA
Kind of test: SPR; Biacore3000, CM5 chip with covalently bound DNase E7; Im7-tagged luminal PSII domain captured from the cell-free reaction mixture (on-chip purification); reference surface with Im7, both surfaces saturated with purified Im7; soluble protein injected as analyte in triplicate; steady state responses fitted to a one site binding isotherm.

Test [2] concerns the target T1, PsbV. The description is as above.
Test [3] addresses T3, Im7-CP47 (e-loop of CP47 fused to Im7) (Thermosynechococcus elongatus, UniProt Q8DIQ1 255-450).
T3 construct: luminal e-loop of CP47 (PsbB) of Thermosynechococcus elongatus; source: cell-free expression (RTS100, 5Prime), purified on the SPR sensor surface via DNase E7; not shown: Im7 (immunity protein 7, with GGSG linker), N-terminal, kept
Described as above.

T3 sequence (Q8DIQ1 255-450): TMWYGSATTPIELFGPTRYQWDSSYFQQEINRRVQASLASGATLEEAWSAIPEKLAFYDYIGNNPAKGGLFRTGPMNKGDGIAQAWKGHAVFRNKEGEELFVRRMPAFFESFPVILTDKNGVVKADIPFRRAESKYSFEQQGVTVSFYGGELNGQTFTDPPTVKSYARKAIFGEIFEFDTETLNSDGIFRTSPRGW

B1: Im7-D1pep (C-terminal peptide of processed D1 fused to Im7) (domain or fragment, Thermosynechococcus elongatus, UniProt P0A444 332-344, looked up)
chain: HERNAHNFPLDLA
notes: C-terminal peptide of processed D1, D1 (PsbA1) of Thermosynechococcus elongatus, residues H332-A344; also called D1 peptide; the 13 C-terminal residues of mature D1; source: cell-free expression (RTS100, 5Prime), purified on the SPR sensor surface via DNase E7; not shown: Im7 (immunity protein 7, with GGSG linker), N-terminal, kept
Turning to B1, the Kd (in general, a measure of binding affinity in units of concentration) in the test with CyanoP fell in the range of 100 to 150 µM.

B2: Im7 fusion protein of PsbU (natural protein, Thermosynechococcus elongatus, UniProt Q9F1L5 31-134, looked up)
chain: ATASTEEELVNVVDEKLGTAYGEKIDLNNTNIAAFIQYRGLYPTLAKLIVKNAPYESVEDVLNIPGLTERQKQILRENLEHFTVTEVETALVEGGDRYNNGLYK
notes: PsbU of Thermosynechococcus elongatus, without signal peptide; PsbU is described only as an Im7 fusion protein; source: E. coli Overexpress C43, purified
In turn, B2 showed a Kd with PsbV [1] of 146 µM.

B3: Im7-D2 (C-terminal domain of D2 fused to Im7) (domain or fragment)
chain: not shown
notes: luminal C-terminal domain of D2 (PsbD) of Thermosynechococcus elongatus; source: cell-free expression (RTS100, 5Prime), purified on the SPR sensor surface via DNase E7; not shown: Im7 (immunity protein 7, with GGSG linker), N-terminal, kept
On to B3, for which the results for the Kd with PsbO and with CyanoP were approximately 50 µM and 5.2 µM, respectively.

B4: Im7-mD1 (C-terminal D1 domain in its processed form fused to Im7) (domain or fragment)
chain: not shown
In the case of B4, the Kd in the test with CyanoP was found to be 74 µM.

B5: Im7-pD1 (C-terminal D1 domain with precursor peptide fused to Im7) (domain or fragment)
chain: not shown
As to B5, in the test with CyanoP, the Kd came to 76 µM.

B6: Im7-CP43 (e-loop of CP43 fused to Im7) (domain or fragment)
chain: not shown
notes: luminal e-loop of CP43 (PsbC) of Thermosynechococcus elongatus; source: cell-free expression (RTS100, 5Prime), purified on the SPR sensor surface via DNase E7; not shown: Im7 (immunity protein 7, with GGSG linker), N-terminal, kept
Take B6: the Kd with PsbV [2] was 26 µM; with PsbO, approximately 50 µM; with CyanoP, 55 µM.

B7: Im7-D1a (D1 a-loop fused to Im7) (domain or fragment)
chain: not shown
notes: D1 a-loop, D1 (PsbA1) of Thermosynechococcus elongatus, residues A54-Q113; source: cell-free expression (RTS100, 5Prime), purified on the SPR sensor surface via DNase E7; not shown: Im7 (immunity protein 7, with GGSG linker), N-terminal, kept
In the case of B7, the Kd is 50 to 100 µM with PsbO and 16.2 µM with CyanoP.

As for B8, the Kd in test [3] turned out to be 91 µM.

The values above are taken from article PMC4220643, “Localization of the CyanoP binding site on photosystem II by surface plasmon resonance spectroscopy” (Frontiers in Plant Science, 2014).
